These results are taken from patent US20090170750A1 (Novo Nordisk, published 2009).

The target in the assay is purified recombinant human insulin receptor-exon 11 (human) (UniProt P06213). Briefly: competition with 125I-insulin (SPA).
Chain of purified recombinant human insulin receptor-exon 11 (human) (P06213 other isoform, or with tags, fused parts or gaps limits assumed, form in doubt): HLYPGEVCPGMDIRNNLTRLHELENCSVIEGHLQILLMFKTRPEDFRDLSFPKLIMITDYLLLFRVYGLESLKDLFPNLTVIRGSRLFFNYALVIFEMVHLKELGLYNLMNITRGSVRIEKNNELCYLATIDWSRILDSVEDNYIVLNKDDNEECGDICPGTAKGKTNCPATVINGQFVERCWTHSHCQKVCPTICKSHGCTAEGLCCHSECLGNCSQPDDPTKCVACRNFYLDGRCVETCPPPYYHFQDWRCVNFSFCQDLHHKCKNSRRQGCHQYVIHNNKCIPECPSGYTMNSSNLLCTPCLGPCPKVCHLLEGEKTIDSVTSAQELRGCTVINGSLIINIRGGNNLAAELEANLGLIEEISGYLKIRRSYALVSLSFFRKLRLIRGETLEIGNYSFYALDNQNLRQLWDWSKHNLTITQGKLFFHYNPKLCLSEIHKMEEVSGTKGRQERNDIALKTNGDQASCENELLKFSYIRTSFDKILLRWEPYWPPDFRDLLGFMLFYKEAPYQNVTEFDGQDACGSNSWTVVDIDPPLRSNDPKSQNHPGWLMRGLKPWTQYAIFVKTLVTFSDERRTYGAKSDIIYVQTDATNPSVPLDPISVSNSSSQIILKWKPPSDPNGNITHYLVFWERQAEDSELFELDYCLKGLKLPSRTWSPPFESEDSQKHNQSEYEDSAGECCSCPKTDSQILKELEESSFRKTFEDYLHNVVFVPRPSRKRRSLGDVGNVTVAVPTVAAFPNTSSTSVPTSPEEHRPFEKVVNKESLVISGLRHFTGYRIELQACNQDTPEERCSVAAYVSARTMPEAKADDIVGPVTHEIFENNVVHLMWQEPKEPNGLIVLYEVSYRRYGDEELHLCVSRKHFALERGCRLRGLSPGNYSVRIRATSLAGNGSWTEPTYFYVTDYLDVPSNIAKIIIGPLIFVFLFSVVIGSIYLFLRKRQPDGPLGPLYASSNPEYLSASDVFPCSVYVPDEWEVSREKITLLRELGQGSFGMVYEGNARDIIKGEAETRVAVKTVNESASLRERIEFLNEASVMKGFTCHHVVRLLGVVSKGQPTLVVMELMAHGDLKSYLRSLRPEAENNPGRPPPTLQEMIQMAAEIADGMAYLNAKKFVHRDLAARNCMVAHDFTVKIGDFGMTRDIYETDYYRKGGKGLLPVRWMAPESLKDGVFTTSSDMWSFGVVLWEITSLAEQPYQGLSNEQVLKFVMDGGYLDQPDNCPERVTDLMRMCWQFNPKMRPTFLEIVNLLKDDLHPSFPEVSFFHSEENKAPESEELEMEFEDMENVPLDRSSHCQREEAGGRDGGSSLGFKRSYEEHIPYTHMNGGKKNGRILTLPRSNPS

Take “single-chain insulin PAK 1784, connecting peptide WASGSGK [A18Q_A21G] (from UniProt P01308 25-53; P01308 90-110) (ligand)”: the IR, binding relative to human insulin was 23%.

“single-chain insulin PAK 1769062, connecting peptide PVGSSSGK [A18Q_A21G] (from UniProt P01308 25-53; P01308 90-110) (ligand)”: the IR, binding relative to human insulin was found to be 56%.

“single-chain insulin PAK 1789, connecting peptide VGLRSGK [A18Q_A21G] (from UniProt P01308 25-53; P01308 90-110) (ligand)”: the IR, binding relative to human insulin was found to be 248%.

Take “single-chain insulin PAK 1854, connecting peptide VGLYSGK [B29E_A18Q] (from UniProt P01308 25-53; P01308 90-110) (ligand)”: the IR, binding relative to human insulin is 40%.

With “single-chain insulin PAK 1877, connecting peptide TGLGSGK [B28D_A18Q] (from UniProt P01308 25-53; P01308 90-110) (ligand)”, the IR, binding relative to human insulin stood at 140%.

“single-chain insulin PAK 1893, connecting peptide TGLGSGQ [B10Q_A18Q] (from UniProt P01308 25-53; P01308 90-110) (ligand)”: the IR, binding relative to human insulin was found to be 51%.

Consider “single-chain insulin PAK 1723, connecting peptide VGSSRGK [A21G] (from UniProt P01308 25-53; P01308 90-110) (ligand)”, for which the IR, binding relative to human insulin was 33%.

On to “single-chain insulin PAK 1788, connecting peptide VGLYSGK [A18Q_A21G] (from UniProt P01308 25-53; P01308 90-110) (ligand)”, for which the IR, binding relative to human insulin was 323%.

For “single-chain insulin PAK 1764, connecting peptide AGLGSGK [A18Q_A21G] (from UniProt P01308 25-53; P01308 90-110) (ligand)”, the IR, binding relative to human insulin is 120%.

As for “single-chain insulin PAK 1740, connecting peptide VGSSSGK [B1G_B3Q_A18Q_A21G] (from UniProt P01308 25-53; P01308 90-110) (ligand)”, the IR, binding relative to human insulin was 90%.

Take “single-chain insulin PAK 1769013, connecting peptide QVGSSSGK [A18Q_A21G] (from UniProt P01308 25-53; P01308 90-110) (ligand)”: the IR, binding relative to human insulin was 33%.

Take “single-chain insulin PAK 1767, connecting peptide AGRGSGP [A18Q_A21G] (from UniProt P01308 25-53; P01308 90-110) (ligand)”: the IR, binding relative to human insulin was 28%.

Turning to “single-chain insulin PAK 1855, connecting peptide VGLYSGK [B28D_A18Q] (from UniProt P01308 25-53; P01308 90-110) (ligand)”, the IR, binding relative to human insulin is 221%.

As for “single-chain insulin PAK 1808, connecting peptide AGRGSGK [B1G_B3Q_A18Q_A21G] (from UniProt P01308 25-53; P01308 90-110) (ligand)”, the IR, binding relative to human insulin came to 86%.

“single-chain insulin with connecting peptide GGSSGK (SEQ ID NO:116), no PAK number printed (from UniProt P01308 25-53; P01308 90-110) (ligand)”: the IR, binding relative to human insulin stood at 23%.

For the substance “single-chain insulin PAK 1835, connecting peptide TGLGKGQ [B29E_A18Q] (from UniProt P01308 25-53; P01308 90-110) (ligand)”, the IR, binding relative to human insulin was determined as 50%.

For the substance “single-chain insulin PAK 1880, connecting peptide VGLSSGQ [B1G_B3Q_A18Q_A21G] (from UniProt P01308 25-53; P01308 90-110) (ligand)”, the IR, binding relative to human insulin worked out at 54%.

Regarding “single-chain insulin with connecting peptide QGSSGK (SEQ ID NO:110), no PAK number printed (from UniProt P01308 25-53; P01308 90-110) (ligand)”, the IR, binding relative to human insulin was 36%.

For the substance “single-chain insulin PAK 1762, connecting peptide AGMGSGP [A18Q_A21G] (from UniProt P01308 25-53; P01308 90-110) (ligand)”, the IR, binding relative to human insulin is 20%.

As for “single-chain insulin PAK 1838, connecting peptide TGLGKGQ [B29R_A18Q] (from UniProt P01308 25-53; P01308 90-110) (ligand)”, the IR, binding relative to human insulin amounted to 113%.

As for “single-chain insulin PAK 1847, connecting peptide TGLGKGR [B27E_B29A_A18Q] (from UniProt P01308 25-53; P01308 90-110) (ligand)”, the IR, binding relative to human insulin is 82%.

For the substance “single-chain insulin with connecting peptide QGSSGK (SEQ ID NO:115), no PAK number printed (from UniProt P01308 25-53; P01308 90-110) (ligand)”, the IR, binding relative to human insulin was 34%.

For the substance “single-chain insulin PAK 1876, connecting peptide VGLSSGQ [B27K_B29A_A18Q] (from UniProt P01308 25-53; P01308 90-110) (ligand)”, the IR, binding relative to human insulin was 38%.

With “single-chain insulin PAK 1848, connecting peptide TGLGKGR [B27E_B29E_A18Q] (from UniProt P01308 25-53; P01308 90-110) (ligand)”, the IR, binding relative to human insulin is 40%.

For the substance “single-chain insulin PAK 1787, connecting peptide VGLSSGQ [A18Q_A21G] (from UniProt P01308 25-53; P01308 90-110) (ligand)”, the IR, binding relative to human insulin came to 123%.

As to “single-chain insulin PAK 1884, connecting peptide VGLSSGQ [B29A_A8K_A18Q] (from UniProt P01308 25-53; P01308 90-110) (ligand)”, the IR, binding relative to human insulin was 89%.

As for “single-chain insulin PAK 1810, connecting peptide TGLGSGQ [A18Q_A21G] (from UniProt P01308 25-53; P01308 90-110) (ligand)”, the IR, binding relative to human insulin turned out to be 73%.

Consider “single-chain insulin PAK 1811, connecting peptide TGLGSGK [A18Q_A21G] (from UniProt P01308 25-53; P01308 90-110) (ligand)”, for which the IR, binding relative to human insulin was 136%.

Consider “single-chain insulin PAK 1860, connecting peptide VGSSSGK [B3K_A18Q_A21G] (from UniProt P01308 25-53; P01308 90-110) (ligand)”, for which the IR, binding relative to human insulin stood at 83%.

Take “single-chain insulin PAK 1871, connecting peptide VGLSSGQ [B29A_A18K] (from UniProt P01308 25-53; P01308 90-110) (ligand)”: the IR, binding relative to human insulin was determined as 82%.

As to “single-chain insulin PAK 1785, connecting peptide ASWGSGK [A18Q_A21G] (from UniProt P01308 25-53; P01308 90-110) (ligand)”, the IR, binding relative to human insulin was 136%.

Take “single-chain insulin PAK 1744, connecting peptide VGSSSGK [A18Q_A21G] (from UniProt P01308 25-53; P01308 90-110) (ligand)”: the IR, binding relative to human insulin was 80%.

“single-chain insulin PAK 1738, connecting peptide VGSSSGK [A18Q] (from UniProt P01308 25-53; P01308 90-110) (ligand)”: the IR, binding relative to human insulin is 89%.

For the substance “single-chain insulin PAK 1791, connecting peptide HGLYSGK [A18Q_A21G] (from UniProt P01308 25-53; P01308 90-110) (ligand)”, the IR, binding relative to human insulin was determined as 226%.

For “single-chain insulin PAK 1894, connecting peptide TGLGSGQ [desB1_B3Q_B10Q_A18Q] (from UniProt P01308 26-53; P01308 90-110) (ligand)”, the IR, binding relative to human insulin stood at 38%.

With “single-chain insulin PAK 1866, connecting peptide VGLSSGQ [A18Q] (from UniProt P01308 25-53; P01308 90-110) (ligand)”, the IR, binding relative to human insulin stood at 196%.

In the case of “single-chain insulin PAK 1769027, connecting peptide LVGSSSGK [A18Q_A21G] (from UniProt P01308 25-53; P01308 90-110) (ligand)”, the IR, binding relative to human insulin amounted to 68%.

“single-chain insulin PAK 1875, connecting peptide VGLSSGQ [B28K_B29A_A18Q] (from UniProt P01308 25-53; P01308 90-110) (ligand)”: the IR, binding relative to human insulin was 35%.

For “single-chain insulin PAK 1734, connecting peptide VGLSSGK [A21G] (from UniProt P01308 25-53; P01308 90-110) (ligand)”, the IR, binding relative to human insulin turned out to be 211%.

As for “single-chain insulin PAK 1846, connecting peptide TGLGKGR [B29A_A18Q] (from UniProt P01308 25-53; P01308 90-110) (ligand)”, the IR, binding relative to human insulin is 92%.

In the case of “single-chain insulin PAK 1869, connecting peptide VGLSSGQ [B22K_B29A_A18Q] (from UniProt P01308 25-53; P01308 90-110) (ligand)”, the IR, binding relative to human insulin is 69%.

On to “single-chain insulin PAK 1818, connecting peptide KGLGSGQ [B3Q_B29R_A18Q_A21G] (from UniProt P01308 25-53; P01308 90-110) (ligand)”, for which the IR, binding relative to human insulin came to 125%.

In the case of “single-chain insulin PAK 1878, connecting peptide VGLSSGQ [B3K_A18K_A21G] (from UniProt P01308 25-53; P01308 90-110) (ligand)”, the IR, binding relative to human insulin is 172%.
